Laboratory results reported in patent US11779606B2, “Peptides and combination of peptides of non-canonical origin for use in immunotherapy against different types of cancers” (Immatics Biotechnologies GmbH, priority 2018, dated 2023).

How the values were obtained:
HLA-A*02:01 = HLA-A*02:01 (Homo sapiens, UniProt P04439, D140Y/D185E/D98H/E176V/E277Q/G131W/G231S/I119V/I121R/I166T/I218V/L300P/L318F/N151K/N90K/P208A/P217A/Q86G/Q94H/R138H/R169H/T345S); assay: MHC binding assay (UV-ligand exchange, β2m ELISA); conditions: MHC class I binding score; peptide exchange yield, binding to HLA-A*02:01, UV-ligand exchange with β2m ELISA
Excerpt: Candidate peptides for T cell based therapies according to the present invention were further tested for their MHC binding capacity (affinity).
The individual peptide-MHC complexes were produced by UV-ligand exchange, where a UV-sensitive peptide is cleaved upon UV-irradiation and exchanged with the peptide of interest as analyzed. Only peptide candidates that can effectively bind and stabilize the peptide-receptive MHC molecules prevent dissociation of the MHC complexes. To determine the yield of the exchange reaction, an ELISA was performed based on the detection of the light chain (β2m) of stabilized MHC complexes. The assay was performed as generally described in Rodenko et al. (Rodenko et al., 2006).
96 well MAXISorp plates (NUNC) were coated over night with 2 ug/ml streptavidin in PBS at room temperature, washed 4× and blocked for 1h at 37° C. in 2% BSA containing blocking buffer. Refolded HLA-A*02:01/MLA-001 monomers served as standards, covering the range of 15-500 ng/ml. Peptide-MHC monomers of the UV-exchange reaction were diluted 100 fold in blocking buffer. Samples were incubated for 1 h at 37° C., washed four times, incubated with 2 ug/ml HRP conjugated anti-β2m for 1h at 37° C., washed again and detected with TMB solution that is stopped with […]. Absorption was measured at 450 nm. Candidate peptides that show a high exchange yield (preferably higher than 50%, most preferred higher than 75%) are generally preferred for a generation and production of antibodies or fragments thereof, and/or T cell receptors or fragments thereof, as they show sufficient avidity to the MHC molecules and prevent dissociation of the MHC complexes.

CD8+ T cells = assay: In vitro T-cell priming assay (immunogenicity) with artificial APCs loaded with peptide/MHC complexes and anti-CD28; format: cell-based, human; conditions: CD8+ T cells of healthy HLA-A*02 donors, multimer staining, Table 13b
Excerpt: In order to obtain information regarding the immunogenicity of the TUMAPs of the present invention, the inventors performed investigations using an in vitro T-cell priming assay based on repeated stimulations of CD8+ T cells with artificial antigen presenting cells (aAPCs) loaded with peptide/MHC complexes and anti-CD28 antibody.
In order to perform in vitro stimulations by artificial antigen presenting cells loaded with peptide-MHC complex (pMHC) and anti-CD28 antibody, the inventors first isolated CD8+ T cells from fresh HLA-A*02 leukapheresis products via positive selection using CD8 microbeads (Miltenyi Biotec, Bergisch-Gladbach, Germany) of healthy donors obtained from the University clinics Mannheim, Germany, after informed consent.
PBMCs and isolated CD8+ lymphocytes were incubated in T-cell medium (TCM) until use consisting of RPMI-Glutamax (Invitrogen, Karlsruhe, Germany) supplemented with 10% heat inactivated human AB serum (PAN-Biotech, Aidenbach, Germany), 100 U/ml Penicillin/100 μg/ml Streptomycin (Cambrex, Cologne, Germany), 1 mM sodium pyruvate (CC Pro, Oberdorla, Germany), 20 μg/ml Gentamycin (Cambrex). 2.5 ng/ml IL-7 (PromoCell, Heidelberg, Germany) and 10 U/ml IL-2 (Novartis Pharma, Nümberg, Germany) were also added to the TCM at this step.
Generation of pMHC/anti-CD28 coated beads, T-cell stimulations and readout was performed in a highly defined in vitro system using four different pMHC molecules per stimulation condition and 8 different pMHC molecules per readout condition.
The purified co-stimulatory mouse IgG2a anti human CD28 Ab 9.3 (Jung et al., 1987) was chemically biotinylated using Sulfo-N-hydroxysuccinimidobiotin as recommended by the manufacturer (Perbio, Bonn, Germany). Beads used were 5.6 μm diameter streptavidin coated polystyrene particles (Bangs Laboratories, Illinois, USA).
800.000 beads/200 μl were coated in 96-well plates in the presence of 4×12.5 ng different biotin-pMHC, washed and 600 ng biotin anti-CD28 were added subsequently in a volume of 200 μl. Stimulations were initiated in 96-well plates by co-incubating […] CD8+ T cells with 2×10^5 washed coated beads in 200 μl TCM supplemented with 5 ng/ml IL-12 (PromoCell) for 3 days at 37° C. Half of the medium was then exchanged by fresh TCM supplemented with 80 U/ml IL-2 and incubating was continued for 4 days at 37° C. This stimulation cycle was performed for a total of three times. For the pMHC multimer readout using 8 different pMHC molecules per condition, a two-dimensional combinatorial coding approach was used as previously described (Andersen et al., 2012) with minor modifications encompassing coupling to 5 different fluorochromes. Finally, multimeric analyses were performed by staining the cells with Live/dead near IR dye (Invitrogen, Karlsruhe, Germany), CD8-FITC antibody clone SK1 (BD, Heidelberg, Germany) and fluorescent pMHC multimers. For analysis, a BD LSRII SORP cytometer equipped with appropriate lasers and filters was used. Peptide specific cells were calculated as percentage of total CD8+ cells. Evaluation of multimeric analysis was done using the FlowJo software (Tree Star, Oreg., USA). In vitro priming of specific multimer+CD8+ lymphocytes was detected by comparing to negative control stimulations.

Row | Peptide exchange (HLA-A*02:01) | Substance | Wells positive [%] (CD8+ T cells)
1 | ++++ (≥75% = ++++) | 6 (ALHDSPVYL; listed as Homo sapiens) [compound 6] | ++ (20-49% = ++)
2 | ++++ (≥75% = ++++) | 68 (KLLADAFKV; listed as Homo sapiens) [compound 68] | ++++ (≥70% = ++++)
3 | ++++ (≥75% = ++++) | 48 (MLAEIHPKA; listed as Homo sapiens) [compound 48] | +++ (50-69% = +++)
4 | ++++ (≥75% = ++++) | 47 (ALLPGVPGL; listed as Homo sapiens) [compound 47] | ++ (20-49% = ++)
5 | ++++ (≥75% = ++++) | 18 (KMMTFFQGL; listed as Homo sapiens) [compound 18] | ++++ (≥70% = ++++)
6 | ++++ (≥75% = ++++) | 19 (MLLPWLPKL; listed as Homo sapiens) [compound 19] | +++ (50-69% = +++)
7 | ++++ (≥75% = ++++) | 40 (FTLPFLVNL; listed as Homo sapiens) [compound 40] | +++ (50-69% = +++)
8 | ++++ (≥75% = ++++) | 2 (ALLDVLVKL; listed as Homo sapiens) [compound 2] | + (<20% = +)
9 | ++++ (≥75% = ++++) | 74 (TLLSYSIPL; listed as Homo sapiens) [compound 74] | + (<20% = +)
10 | ++++ (≥75% = ++++) | 7 (ALWEEVKATSL; listed as Homo sapiens) [compound 7] | + (<20% = +)
11 | ++++ (≥75% = ++++) | 29 (LLWEFPSMA; listed as Homo sapiens) [compound 29] | ++ (20-49% = ++)
12 | ++++ (≥75% = ++++) | 65 (IAISQLTFV; listed as Homo sapiens) [compound 65] | + (<20% = +)
13 | ++++ (≥75% = ++++) | 38 (SLSAWLPSL; listed as Homo sapiens) [compound 38] | + (<20% = +)
14 | ++++ (≥75% = ++++) | 101 (KLPEGHLPEV; listed as Homo sapiens) [compound 101] | + (<20% = +)
15 | ++++ (≥75% = ++++) | 26 (KLWTSLVNL; listed as Homo sapiens) [compound 26] | +++ (50-69% = +++)
16 | ++++ (≥75% = ++++) | 51 (GLLTQVHIL; listed as Homo sapiens) [compound 51] | + (<20% = +)
17 | ++++ (≥75% = ++++) | 36 (FQVTRTTGV; listed as Homo sapiens) [compound 36] | + (<20% = +)
18 | ++++ (≥75% = ++++) | 3 (FLLVPSPIWQL; listed as Homo sapiens) [compound 3] | + (<20% = +)
19 | ++++ (≥75% = ++++) | 31 (VVLPIVITL; listed as Homo sapiens) [compound 31] | ++ (20-49% = ++)
20 | ++++ (≥75% = ++++) | 37 (KILDEFYNV; listed as Homo sapiens) [compound 37] | +++ (50-69% = +++)
21 | ++++ (≥75% = ++++) | 4 (YLGDSHVLL; listed as Homo sapiens) [compound 4] | + (<20% = +)
22 | ++++ (≥75% = ++++) | 50 (GLASYLDRV; listed as Homo sapiens) [compound 50] | + (<20% = +)
23 | ++++ (≥75% = ++++) | 46 (AMVEIIPKV; listed as Homo sapiens) [compound 46] | + (<20% = +)
24 | ++++ (≥75% = ++++) | 13 (FLDEGSLLRL; listed as Homo sapiens) [compound 13] | + (<20% = +)
25 | ++++ (≥75% = ++++) | 33 (FASERPPSV; listed as Homo sapiens) [compound 33] | +++ (50-69% = +++)
26 | ++++ (≥75% = ++++) | 1 (KLLDFSTRI; listed as Homo sapiens) [compound 1] | + (<20% = +)
27 | ++++ (≥75% = ++++) | 96 (KIIEDLANTV; listed as Homo sapiens) [compound 96] | ++ (20-49% = ++)
